According to patent US8299213B2, “Synthetic or natural peptides binding protein phosphatase 2A, identification method and uses” (Universite Pierre et Marie Curie (Paris 6), priority 2001, dated 2012):
“Also recorded” adds a separate entry of the source.

How the values were obtained:
subunit A of PP2A = target: T1, subunit A of PP2A (Homo sapiens, UniProt P30153); assay: SPOT peptide membrane screened with structural subunit A of PP2A; format: binding; conditions: peptides on cellulose membrane, 4 μg/ml purified protein, antibody against protein A (FIGS. 1A, 2A)
T1 construct: made in house; host or cells: E. coli
T1 sequence (P30153 whole entry): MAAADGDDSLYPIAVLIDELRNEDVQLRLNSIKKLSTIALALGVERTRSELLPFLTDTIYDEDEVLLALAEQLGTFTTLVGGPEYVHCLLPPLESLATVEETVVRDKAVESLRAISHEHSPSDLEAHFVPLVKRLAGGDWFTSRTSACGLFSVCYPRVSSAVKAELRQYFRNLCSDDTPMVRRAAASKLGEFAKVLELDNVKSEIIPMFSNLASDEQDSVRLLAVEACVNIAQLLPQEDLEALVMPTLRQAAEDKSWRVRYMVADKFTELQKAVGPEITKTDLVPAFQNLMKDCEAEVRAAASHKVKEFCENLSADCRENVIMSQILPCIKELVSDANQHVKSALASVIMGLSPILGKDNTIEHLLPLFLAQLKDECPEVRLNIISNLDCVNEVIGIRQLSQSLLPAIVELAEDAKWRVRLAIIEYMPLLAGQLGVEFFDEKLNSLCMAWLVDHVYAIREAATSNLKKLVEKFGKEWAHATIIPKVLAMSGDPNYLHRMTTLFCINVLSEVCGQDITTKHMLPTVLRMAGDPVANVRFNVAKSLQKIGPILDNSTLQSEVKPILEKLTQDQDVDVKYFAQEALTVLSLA
Excerpt: A recombinant structural subunit of PP2A was expressed in E. coli and purified using the protocol described by Cohen et al (Cohen P, Alemany S, Hemmings B A, Resink T J, Stralfors P, Tung H Y. Protein phosphatase-1 and protein phosphatase 2A from rabbit skeletal muscle. Methods Enzymol 1988 159, 390-408), or that described by Bosch et al (Bosch M, Cayla X, Van Hoof C, Hemmings B A, Ozon R, Merlevede W, Goris J. the PR55 and PR65 subunits of protein phosphatase 2A from Xenopus laevis. Molecular cloning and developmental regulation of expression. Eur J Biochem 1995, 230, 1037-45).
(§1) Binding peptides derived from CK2α proteins (encoded by T parva protozoa) or Vpr protein (encoded by the HIV-1 virus) with PP2A were identified using the “spot peptides” technique described above (Frank and Overwing, 1996, Meth Mol Biol 66, 149-169).
(§2) The method consisted of synthesizing dodecapeptides, in situ on a cellulose membrane, at defined positions wherein the series of the sequence covered the whole sequence of the protein of interest (Vpr or CK2α). The peptides of two consecutive spots on the membrane overlap with an overlapped by two amino acids.
(§3) Sixty-eight (68) dodecapeptides covering the whole sequence of the Vpr protein of HIV-1 and two hundred and five (205) dodecapeptides covering the sequence for the CK2α protein of Theileria were synthesized and covalently bound to cellulose membranes.
(§4) Each prepared membrane was first saturated for 1 hour at ambient temperature with TBS containing 5% skimmed Régilait (milk) and 3% BSA then incubated overnight in the same buffer in the presence of 4 μg/ml of purified protein (subunit A of PP2A or holoenzyme PP2A1).
(§5) The membranes were washed 5 times for 15 minutes with a conventional TBST buffer (TBS+TWEEN) used for incubation then incubated a further 1 hour at ambient temperature with a second antibody (coupled with peroxidase).

Hela cells [1] = assay: Cell penetration test (biotinylated peptide-avidine peroxidase complexes); format: cell-based, human; conditions: biotinylated peptides, 4 hours incubation (FIG. 3)
Description: We analyzed the Hela line, which is derived from a human cervical carcinoma.
0.1 M Tris buffer, pH 8 containing 0.5% NP40.
25.7 ml of 0.2 M dibasic sodium phosphate+24.3 ml of 0.1 M citric acid+50 ml distilled water; adjust to pH 5.0.
4 moles of peptides were incubated with 1 mole of avidine-peroxidase. 20 minutes at ambient temperature.
Hela cells (10^4 in […]) were seeded into 96-well plates (flat bases) with complete DMEM medium in the presence of 2.5% penicillin/ampicillin and 10% foetal calf serum. After incubating overnight at 37° C. in a CO2 oven (5%), different dilutions of complexes (biotinylated-avidine peroxidase peptides) were added. After incubating for 4 hours the supernatant was aspirated and the cells were washed 3 times with PBS, trypsinated and taken up for counting in PBS. After counting, the cells were taken up in 300 μl of lysis buffer.
50 μl of OPD buffer was incubated in a 96 well ELISA plate with 50 μl of lysis buffer or 50 μl of cell lysate (in general, different successive dilutions were carried out (to ½)). In order to reveal, 50 μl of OPD solution was added (in the dark). The reaction (about 10 min) was stopped with 100 μl of 1N HCl.
The peroxidase activity was determined by reading at 490 nm in the ELISA reader (reference filter at 620 nm) and the quantity of peroxidase in the lysates was calculated from the calibration curve then extrapolated to the same number of cells (10^3 or 10^4): Peptide molecules=(6*10^23/MW of peptide)*ng of PO*10^−9. A.4. Cell Viability Test

Hela cells [2] = assay: Cell viability test (MTT); format: cell-based, human; conditions: 72 h, increasing peptide concentrations (FIG. 4)
Description: Hela cells (10^4 for 100 μl) were seeded into 96-well plates (flat bases) with complete DMEM medium containing 2.5% penicillin/ampicillin and 10% foetal calf serum. After incubating overnight at 37° C. in a CO2 oven (5%), the cells were cultivated in the presence of different peptide concentrations. After incubating for 72 h, the medium containing the peptides was aspirated and the MTT at 0.5 mg/ml (diluted in DMEM alone) was added in an amount of 100 μl per well. Incubation was carried out in the dark at 37° C. for 30 minutes then the MTT was aspirated off and 50 μl of DMSO was added to all wells. It was necessary to wait ten minutes for complete lysis of the cells and to agitate the lysate well to homogenize dissolution of the reaction product in the wells. The plates were then read at 570 nm with a 690 nm reference filter.

holoenzyme PP2A1 = target: T2, holoenzyme PP2A1 (Sus scrofa, UniProt P54612); assay: SPOT peptide membrane screened with holoenzyme PP2A1; format: binding, pig; conditions: for binding to the trimeric holoenzyme PP2A1: peptides on cellulose membrane, 4 μg/ml purified protein, antibodies against proteins A, B and C (FIGS. 1B, 2B)
T2 construct: Trimeric PP2A1 protein was purified to homogeneity from pig brain; from tissue; host or cells: pig brain
T2 sequence (P54612 whole entry): as the sequence (P30153 whole entry) above, with S324T counted along it
T2 sequence (P67776 whole entry partner): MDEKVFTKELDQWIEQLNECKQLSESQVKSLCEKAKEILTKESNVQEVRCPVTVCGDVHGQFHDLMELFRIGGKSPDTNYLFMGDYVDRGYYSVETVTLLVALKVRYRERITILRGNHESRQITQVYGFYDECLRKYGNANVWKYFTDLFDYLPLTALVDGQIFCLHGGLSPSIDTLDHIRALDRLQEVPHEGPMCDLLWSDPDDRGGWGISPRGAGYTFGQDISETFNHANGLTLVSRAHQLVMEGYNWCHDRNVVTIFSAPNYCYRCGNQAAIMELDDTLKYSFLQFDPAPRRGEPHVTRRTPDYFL
Excerpt: Trimeric PP2A1 protein was purified to homogeneity from pig brain.
as §1, §2, §3, §4, §5

Substance	binding to the structural subunit A of PP2A (subunit A of PP2A)	intracellular penetration into Hela cells (Hela cells [1])	further results
TVTKDKCVIKILKPVKKKKIKREIKILQNL (listed as Theileria parva) [T parva CK2α site 2]	containing a binding site	–	–
(RHSRIG)3 (RHSRIGRHSRIGRHSRIG; listed as Theileria parva) [FD11]	–	possibility of penetrating into the Hela cell	–
RRRRRRRSRGRRRRTY (listed as Theileria parva) [FD8, peptide derived from protamine]	–	possibility of penetrating into the Hela cell; also recorded: penetrating peptides	effect on viability of Hela cells (Hela cells [2]): affects the viability of Hela cells
IRILQQLLFIHF (Human immunodeficiency virus) [SEQ ID No: 8]	binding the subunit A of PP2A	–	–
(RQKRLI)3 (RQKRLIRQKRLIRQKRLI; listed as Theileria parva) [FD7]	–	possibility of penetrating into the Hela cell	–
RHSRIGIIQQRR (Human immunodeficiency virus) [SEQ ID No: 10]	binding the subunit A of PP2A	–	–
(AHSRIG)3 (AHSRIGAHSRIGAHSRIG; listed as Theileria parva) [FD12]	–	–	effect on viability of Hela cells (Hela cells [2]): affects the viability of the Hela cell
VKKKKIKREIKI (listed as Theileria parva) [FD6]	–	possibility of penetrating into the Hela cell	effect on viability of Hela cells (Hela cells [2]): does not affect the viability
KILRLIDWGLAEFYHP (listed as Theileria parva) [T parva CK2α site 3]	containing a binding site	–	binding to the trimeric holoenzyme PP2A1 (holoenzyme PP2A1): containing a binding site
VEALIRILQQLLFIHFRI [HIV-1 Vpr site 2]	containing a binding site	–	–
LIDWGLAEFYHP (listed as Theileria parva) [peptide 131]	–	–	binding PP2A (holoenzyme PP2A1; FIG. 2, subunit A or holoenzyme not given): capable of binding PP2A
SRIGIIQQRRTR (Human immunodeficiency virus) [SEQ ID No: 11]	binding the subunit A of PP2A	–	–
ALIRILQQLLFI (Human immunodeficiency virus) [SEQ ID No: 7]	binding the subunit A of PP2A	–	–
ILQQLLFIHFRI (Human immunodeficiency virus) [SEQ ID No: 9]	binding the subunit A of PP2A	–	–
RKIGRGKFSEVFEG (listed as Theileria parva) [T parva CK2α site 1]	containing a binding site	–	–
VEALIRILQQLL [SEQ ID No: 6]	binding the subunit A of PP2A	–	–
RHSRIGVTRQRRARNG [FD13]	–	possibility of penetrating into the Hela cell	effect on viability of Hela cells (Hela cells [2]): absence of the biological effect
RHSRIGIIQQRRTRNG [FD14]	containing a binding site	possibility of penetrating into the Hela cell; also recorded: penetrating peptides	binding to the trimeric holoenzyme PP2A1 (holoenzyme PP2A1): containing a binding site; effect on viability of Hela cells (Hela cells [2]): clearly affects the viability of Hela cells
IGIIQQRRTRNG (Human immunodeficiency virus) [SEQ ID No: 12]	binding the subunit A of PP2A	–	–
